In patent US20250269047A1 (MABWELL SHANGHAI BIOSCIENCE, published 2025):

T1: recombinant human B7-H3-his extracellular domain protein (UniProtKB-Q5ZPR3, 1 aa-461 aa) (human, UniProt Q5ZPR3 29-461)
T1 construct: range 1-461; The printed range 1-461 starts at residue 1 and so includes the signal peptide; also called Human B7-H3 ECD; recombinant human B7-H3-his protein; not shown: C-terminal his tag
T1 sequence (looked up): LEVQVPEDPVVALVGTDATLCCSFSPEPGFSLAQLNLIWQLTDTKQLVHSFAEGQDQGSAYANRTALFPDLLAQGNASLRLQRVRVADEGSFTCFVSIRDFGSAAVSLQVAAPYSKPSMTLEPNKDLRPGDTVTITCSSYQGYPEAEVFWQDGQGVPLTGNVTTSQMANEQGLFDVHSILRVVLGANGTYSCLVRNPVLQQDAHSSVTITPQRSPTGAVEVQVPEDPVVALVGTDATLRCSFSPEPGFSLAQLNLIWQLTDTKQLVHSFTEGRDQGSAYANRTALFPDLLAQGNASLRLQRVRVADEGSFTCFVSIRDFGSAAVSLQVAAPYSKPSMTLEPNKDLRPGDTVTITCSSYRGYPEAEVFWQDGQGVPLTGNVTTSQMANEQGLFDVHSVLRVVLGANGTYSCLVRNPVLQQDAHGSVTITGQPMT

B1: hz10B4-8 (antibody, human IgG1, kappa)
heavy: not shown
light: DIQLTQSPSSLSASVGDRVTMTCSASSSVSYMHWYQQKPGKAPKLLIYDTSKLASGVPSRFSGSGSGTDFTLTISSLQPEDFATYYCQQWSSNPLTFGGGTKVEIKRTVAAPSVFIFPPSDEQLKSGTASVVCLLNNFYPREAKVQWKVDNALQSGNSQESVTEQDSKDSTYSLSSTLTLSKADYEKHKVYACEVTHQGLSSPVTKSFNRGEC
notes: hz10B4_VH4 + hz10B4_VL2; human IgG1, kappa
B2: hz10B4-12 (antibody, human IgG1, kappa, V domains shown)
VH: EVQLVQSGAEVKKPGASVKVSCKASGYTFTEYIMHWVRQAPGQGLEWMGGINPNQGGTTYNQKFKGRVTMTRDTSISTAYMELSRLRSEDTAVYYCARKGKDYFDWYFDVWGQGTTVTVSS
VL: DIQLTQSPSSLSASVGDRVTMTCSASSSVSYMHWYQQKPGKAPKLLIYDTSKLASGVPSRFSGSGSGTDFTLTISSLQPEDFATYYCQQWSSAPLTFGGGTKVEIKR
notes: hz10B4_VH4 + hz10B4_VL3; human IgG1, kappa
B3: hz10B4-4 (antibody, human IgG1, kappa)
heavy: not shown
light: DIQMTQSPSSLSASVGDRVTMTCSASSSVSYMHWYQQKPGKAPKLLIYDTSKLASGVPSRFSGSGSGTDFTLTISSLQPEDFATYYCQQWSSNPLTFGGGTKVEIKRTVAAPSVFIFPPSDEQLKSGTASVVCLLNNFYPREAKVQWKVDNALQSGNSQESVTEQDSKDSTYSLSSTLTLSKADYEKHKVYACEVTHQGLSSPVTKSFNRGEC
notes: hz10B4_VH4 + hz10B4_VL1; human IgG1, kappa
B4: hz10B4-13 (antibody, human IgG1, kappa, V domains shown)
VH: EVQLVQSGAEVKKPGASVKVSCKASGYTFTEYIMHWVRQAPGQGLEWMGGINPNQGGTTYNQKFKGRVTMTRDTSISTAYMELSRLRSEDTAVYYCARKGKDYFDWYFDVWGQGTTVTVSS
VL: DIQLTQSPSSLSASVGDRVTMTCSASSSVSYMHWYQQKPGKAPKLLIYDTSKLASGVPSRFSGSGSGTDFTLTISSLQPEDFATYYCQQWSASPLTFGGGTKVEIKR
notes: hz10B4_VH4 + hz10B4_VL4; human IgG1, kappa
B5: hz10B4-6 (antibody, human IgG1, kappa)
heavy: not shown
light: DIQLTQSPSSLSASVGDRVTMTCSASSSVSYMHWYQQKPGKAPKLLIYDTSKLASGVPSRFSGSGSGTDFTLTISSLQPEDFATYYCQQWSSNPLTFGGGTKVEIKRTVAAPSVFIFPPSDEQLKSGTASVVCLLNNFYPREAKVQWKVDNALQSGNSQESVTEQDSKDSTYSLSSTLTLSKADYEKHKVYACEVTHQGLSSPVTKSFNRGEC
notes: hz10B4_VH2 + hz10B4_VL2; human IgG1, kappa
B6: hz10B4-9 (antibody, human IgG1, kappa, V domains shown)
VH: EVQLVQSGAEVKKPGASVKVSCKASGYTFTEYIMHWVRQAPGQGLEWMGGINPASGGTTYNQKFKGRVTMTRDTSISTAYMELSRLRSEDTAVYYCARKGKDYFDWYFDVWGQGTTVTVSS
VL: DIQLTQSPSSLSASVGDRVTMTCSASSSVSYMHWYQQKPGKAPKLLIYDTSKLASGVPSRFSGSGSGTDFTLTISSLQPEDFATYYCQQWSSAPLTFGGGTKVEIKR
notes: hz10B4_VH3 + hz10B4_VL3; human IgG1, kappa
B7: hz10B4-5 (antibody, human IgG1, kappa)
heavy: not shown
light: DIQLTQSPSSLSASVGDRVTMTCSASSSVSYMHWYQQKPGKAPKLLIYDTSKLASGVPSRFSGSGSGTDFTLTISSLQPEDFATYYCQQWSSNPLTFGGGTKVEIKRTVAAPSVFIFPPSDEQLKSGTASVVCLLNNFYPREAKVQWKVDNALQSGNSQESVTEQDSKDSTYSLSSTLTLSKADYEKHKVYACEVTHQGLSSPVTKSFNRGEC
notes: hz10B4_VH1 + hz10B4_VL2; human IgG1, kappa
B8: hz10B4-14 (antibody, human IgG1, kappa, V domains shown)
VH: EVQLVQSGAEVKKPGASVKVSCKASGYTFTEYIMHWVRQAPGQGLEWMGGINPNQGGTTYNQKFKGRVTMTRDTSISTAYMELSRLRSEDTAVYYCARKGKDYFDWYFDVWGQGTTVTVSS
VL: DIQLTQSPSSLSASVGDRVTMTCSASSSVSYMHWYQQKPGKAPKLLIYDTSKLASGVPSRFSGSGSGTDFTLTISSLQPEDFATYYCQQWSSQPLTFGGGTKVEIKR
notes: hz10B4_VH4 + hz10B4_VL5; human IgG1, kappa
B9: hz10B4-11 (antibody, human IgG1, kappa, V domains shown)
VH: EVQLVQSGAEVKKPGASVKVSCKASGYTFTEYIMHWVRQAPGQGLEWMGGINPASGGTTYNQKFKGRVTMTRDTSISTAYMELSRLRSEDTAVYYCARKGKDYFDWYFDVWGQGTTVTVSS
VL: DIQLTQSPSSLSASVGDRVTMTCSASSSVSYMHWYQQKPGKAPKLLIYDTSKLASGVPSRFSGSGSGTDFTLTISSLQPEDFATYYCQQWSSQPLTFGGGTKVEIKR
notes: hz10B4_VH3 + hz10B4_VL5; human IgG1, kappa
B10: hz10B4-3 (antibody, human IgG1, kappa)
heavy: not shown
light: DIQMTQSPSSLSASVGDRVTMTCSASSSVSYMHWYQQKPGKAPKLLIYDTSKLASGVPSRFSGSGSGTDFTLTISSLQPEDFATYYCQQWSSNPLTFGGGTKVEIKRTVAAPSVFIFPPSDEQLKSGTASVVCLLNNFYPREAKVQWKVDNALQSGNSQESVTEQDSKDSTYSLSSTLTLSKADYEKHKVYACEVTHQGLSSPVTKSFNRGEC
notes: hz10B4_VH3 + hz10B4_VL1; human IgG1, kappa
B11: hz10B4-1 (antibody, human IgG1, kappa)
heavy: not shown
light: DIQMTQSPSSLSASVGDRVTMTCSASSSVSYMHWYQQKPGKAPKLLIYDTSKLASGVPSRFSGSGSGTDFTLTISSLQPEDFATYYCQQWSSNPLTFGGGTKVEIKRTVAAPSVFIFPPSDEQLKSGTASVVCLLNNFYPREAKVQWKVDNALQSGNSQESVTEQDSKDSTYSLSSTLTLSKADYEKHKVYACEVTHQGLSSPVTKSFNRGEC
notes: hz10B4_VH1 + hz10B4_VL1; human IgG1, kappa
B12: hz10B4-10 (antibody, human IgG1, kappa, V domains shown)
VH: EVQLVQSGAEVKKPGASVKVSCKASGYTFTEYIMHWVRQAPGQGLEWMGGINPASGGTTYNQKFKGRVTMTRDTSISTAYMELSRLRSEDTAVYYCARKGKDYFDWYFDVWGQGTTVTVSS
VL: DIQLTQSPSSLSASVGDRVTMTCSASSSVSYMHWYQQKPGKAPKLLIYDTSKLASGVPSRFSGSGSGTDFTLTISSLQPEDFATYYCQQWSASPLTFGGGTKVEIKR
notes: hz10B4_VH3 + hz10B4_VL4; human IgG1, kappa
B13: hz10B4-2 (antibody, human IgG1, kappa)
heavy: not shown
light: DIQMTQSPSSLSASVGDRVTMTCSASSSVSYMHWYQQKPGKAPKLLIYDTSKLASGVPSRFSGSGSGTDFTLTISSLQPEDFATYYCQQWSSNPLTFGGGTKVEIKRTVAAPSVFIFPPSDEQLKSGTASVVCLLNNFYPREAKVQWKVDNALQSGNSQESVTEQDSKDSTYSLSSTLTLSKADYEKHKVYACEVTHQGLSSPVTKSFNRGEC
notes: hz10B4_VH2 + hz10B4_VL1; human IgG1, kappa
B14: hz17A3-5 (antibody, human IgG1, kappa, V domains shown)
VH: EVQLVQSGAEVKKPGASVKVSCKASGYTFTDYALHWVRQAPGQGLEWMGLINTYSSNTNYNQKFKDRVTMTRDTSISTAYMELSRLRSEDTAVYYCARGITAVVGTRYYAMDYWGQGTLVTVSS
VL: EIVLTQSPGTLSLSPGERATLSCRASQSISNNLHWYQQKPGQAPRLLIKYTSQNISGIPDRFSGSGSGTDFTLTISRLEPEDFAVYYCQQSYSWPLTFGGGTKVEIKR
notes: hz17A3_VH3 + hz17A3_VL3; human IgG1, kappa
B15: hz17A3-6 (antibody, human IgG1, kappa, V domains shown)
VH: EVQLVQSGAEVKKPGASVKVSCKASGYTFTDYALHWVRQAPGQGLEWMGLISTYSSNTNYNQKFKDRVTMTRDTSISTAYMELSRLRSEDTAVYYCARGITAVVGTRYYAMDYWGQGTLVTVSS
VL: EIVLTQSPGTLSLSPGERATLSCRASQSISNNLHWYQQKPGQAPRLLIKYTSQNISGIPDRFSGSGSGTDFTLTISRLEPEDFAVYYCQQSYSWPLTFGGGTKVEIKR
notes: hz17A3_VH4 + hz17A3_VL3; human IgG1, kappa
B16: hz17A3-7 (antibody, human IgG1, kappa, V domains shown)
VH: EVQLVQSGAEVKKPGASVKVSCKASGYTFTDYALHWVRQAPGQGLEWMGLINTYSSSTNYNQKFKDRVTMTRDTSISTAYMELSRLRSEDTAVYYCARGITAVVGTRYYAMDYWGQGTLVTVSS
VL: EIVLTQSPGTLSLSPGERATLSCRASQSISNNLHWYQQKPGQAPRLLIKYTSQNISGIPDRFSGSGSGTDFTLTISRLEPEDFAVYYCQQSYSWPLTFGGGTKVEIKR
notes: hz17A3_VH5 + hz17A3_VL3; human IgG1, kappa
B17: hz17A3-1 (antibody, human IgG1, kappa, V domains shown)
VH: QVQLVQSGAEVKKPGASVKVSCKASGYTFTDYALHWVRQAPGQGLEWMGLINTYSSNTNYNQKFKDRVTMTRDTSISTAYMELSRLRSDDTAVYYCARGITAVVGTRYYAMDYWGQGTLVTVSS
VL: EIVLTQSPGTLSLSPGERATLSCRASQSISNNLHWYQQKPGQAPRLLIYYTSQNISGIPDRFSGSGSGTDFTLTISRLEPEDFAVYYCQQSYSWPLTFGGGTKVEIKR
notes: hz17A3_VH1 + hz17A3_VL1; human IgG1, kappa
B18: hz17A3-2 (antibody, human IgG1, kappa, V domains shown)
VH: QVQLVQSGAEVKKPGASVKVSCKASGYTFTDYALHWVRQAPGQGLEWIGLINTYSSNTNYNQKFKDRVTMTRDTSISTAYMELSRLRSDDTAVYYCARGITAVVGTRYYAMDYWGQGTLVTVSS
VL: EIVLTQSPGTLSLSPGERATLSCRASQSISNNLHWYQQKPGQAPRLLIYYTSQNISGIPDRFSGSGSGTDFTLTISRLEPEDFAVYYCQQSYSWPLTFGGGTKVEIKR
notes: hz17A3_VH2 + hz17A3_VL1; human IgG1, kappa

Target: T1, recombinant human B7-H3-his …
Assay: BLI (Octet QKe), antibody on AHC biosensor, B7-H3-his 60 nM in solution
Experimental: According to the mutation designs, site-directed mutagenesis was performed in the plasmids expressing the humanized light chains and heavy chains respectively using StarMut gene Site-directed Mutagenesis Kit (Cat.: T111-01, GenStar). The mutated plasmids were transformed into E. coli cells for expansion, and plasmids expressing the humanized and mutated light and heavy chains based on the antibodies 9B11, 10B4, and 17A3 were obtained. […] 5-6 days after cell transfection, culture supernatants were purified through ProA affinity chromatography column to obtain different humanized antibodies. Affinities of the antibodies were determined by an assay including capturing Fc fragments of the antibodies with anti-human IgG Fc capture (AHC) biosensors using Octet QKe system instrument from Fortebio. For the assay, each of the humanized antibodies and the chimeric antibodies based on the antibodies 9B11, 10B4, and 17A3 was diluted to 4 μg/ml in PBS, and was allowed to flow through the surface of an AHC biosensor (Cat.: 18-0015, PALL) for 300 s. Recombinant human B7-H3-his protein (Accession No.: UniProtKB-Q5ZPR3, 1 aa-461 aa) was used as a mobile phase, and its concentration was 60 nM. The association time was 100 s and the dissociation time was 300 s. When the assay was finished, data from which the response values of blank control had been deducted were fitted to a 1:1 Langmuir binding model using software, and then kinetic constants for antigen-antibody binding were calculated. The light and heavy chain combinations and the affinity constant KD values of the humanized and the mutant antibodies based on the antibodies 9B11, 10B4, and 17A3 are shown in Tables 6-8 respectively.

Going from B1 to B2, the Kd rises from 0.211 nM to 0.332 nM (1.6-fold). The first binds more tightly here.

B3 and B4 are within 1.5-fold of each other in Kd: 0.501 nM for the first, 0.351 nM for the second.

First: B5
Second: B6
The Kd of the first is 2.7-fold lower: 0.131 nM for the first, 0.352 nM for the second.

First: B7
Second: B8
The Kd of the first is 1.9-fold higher: 0.998 nM for the first, 0.523 nM for the second. The second binds more tightly here.

B9 and B10 are within 1.5-fold of each other in Kd: 0.422 nM for the first, 0.341 nM for the second.

Going from B11 to B12, the Kd falls from 0.827 nM to 0.381 nM (2.2-fold).

B13 and B14 are within 1.5-fold of each other in Kd: 0.177 nM for the first, 0.258 nM for the second.

B15 and B16 are within 1.5-fold of each other in Kd: 0.401 nM for the first, 0.422 nM for the second.

B17 and B18 are within 1.5-fold of each other in Kd: 0.541 nM for the first, 0.771 nM for the second.
